Molecular target: GP41-1 C-intein-thioredoxin fusion protein (CINT_TRX)
Test: cell-based or functional assay

catalytic rate (cleavage rate): ~3 fold of the parent construct NINTΔA_CC
B1: GP41-1 N-intein variant NINTΔA_TM fused with solubilization partner 138 (other)
chain: MTRSGYALDLKTQVQTPQGMKEISNIQVGDLVLSNTGYNEVLNVFPKSKKKSYKITLEDGKEIITSEEHLFPTQTGEMNISGGLKEGMMLYVKEGGMNKDEAGGNWKQFKGKVKEQWGKLTDDDMTIIEGKRDQLVGKIQERYGYQKDQAEKEVVDWETRNEYRW

Reference: US20220267750A1 (Merck KGaA, published 2022)
